Laboratory results as given in patent US20250034266A1 (ZAI LAB SHANGHAI, published 2025).
Like-named read-outs stand apart in the source and are kept apart here.

Tests used:
human CCR8 [1] = biological target: T1, human CCR8 (human, UniProt P51685 1-355); assay: cell-based or functional assay
T1 sequence (P51685 whole entry): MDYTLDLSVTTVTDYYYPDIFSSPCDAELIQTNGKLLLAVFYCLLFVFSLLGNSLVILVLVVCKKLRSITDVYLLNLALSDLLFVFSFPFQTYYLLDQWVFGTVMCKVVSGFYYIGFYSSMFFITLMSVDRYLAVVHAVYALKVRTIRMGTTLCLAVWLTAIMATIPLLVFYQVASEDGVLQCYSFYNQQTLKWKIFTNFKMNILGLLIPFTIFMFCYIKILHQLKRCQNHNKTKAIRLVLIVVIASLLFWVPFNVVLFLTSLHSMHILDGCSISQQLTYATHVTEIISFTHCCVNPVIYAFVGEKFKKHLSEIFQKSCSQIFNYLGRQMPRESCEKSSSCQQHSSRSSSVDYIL

human CCR8 [2] = biological target: T2, human CCR8 (human, UniProt P51685 1-355); assay: cell-based or functional assay; remark: listed apart in the source
T2 sequence (P51685 whole entry): as above

human CCR8 [3] = biological target: T2, human CCR8; assay: cell-based or functional assay; remark: listed apart in the source
[4] = biological target: human CCR8 tagged with ProLink (PK) (human, UniProt P51685 1-355); assay: cell-based or functional assay
Sequence of human CCR8 tagged with ProLink (PK) (P51685 whole entry): as above

human CCR8 [5] = biological target: T2, human CCR8; assay: cell-based or functional assay; remark: listed apart in the source
human CCR8 [6] = biological target: T2, human CCR8; assay: flow cytometry on TALL-1 cells (endogenous CCR8)
Procedure: Briefly, a total of 5×10⁴ cells for each well were seeded in 96-well plates and washed with FACS buffer (DPBS containing 1.5% FBS) for once. Antibodies were prepared with 3-fold serial dilution ranging from 100 nM to 0.00508 nM in FACS buffer. Cells were incubated with 50 μL of diluted antibodies at 4° C. for 40 minutes. After primary antibody incubation, cells were washed twice by FACS buffer. Then, cells were stained by Alexa Flu647-labeled anti-human IgG Fc secondary antibody (Jackson ImmunoResearch, #109606170) at 1:500 dilution in FACS buffer for 40 minutes at 4° C. After 2 times wash with FACS buffer, flow cytometry (BD FACS Celesta) was performed to measure the binding affinities of antibodies.

human CCR8 [7] = biological target: T1, human CCR8; assay: cell-based or functional assay; remark: listed apart in the source
human CCR8 [8] = biological target: T1, human CCR8; assay: cell-based or functional assay; remark: listed apart in the source
human CCR8 [9] = biological target: T1, human CCR8; assay: cell-based or functional assay; remark: listed apart in the source
human CCR8 [10] = biological target: T1, human CCR8; assay: FACS on CHO-K1-human CCR8 cells
human CCR8 [11] = biological target: T1, human CCR8; assay: FACS on CHO-K1-human CCR8 cells; remark: listed apart in the source
cynomolgus CCR8 [12] = biological target: T3, cynomolgus CCR8 (cynomolgus, UniProt G7NYJ2 1-355); assay: FACS on HEK293-cynomolgus CCR8 cells
T3 construct: whole, on cells
T3 sequence (G7NYJ2 entry or part of it): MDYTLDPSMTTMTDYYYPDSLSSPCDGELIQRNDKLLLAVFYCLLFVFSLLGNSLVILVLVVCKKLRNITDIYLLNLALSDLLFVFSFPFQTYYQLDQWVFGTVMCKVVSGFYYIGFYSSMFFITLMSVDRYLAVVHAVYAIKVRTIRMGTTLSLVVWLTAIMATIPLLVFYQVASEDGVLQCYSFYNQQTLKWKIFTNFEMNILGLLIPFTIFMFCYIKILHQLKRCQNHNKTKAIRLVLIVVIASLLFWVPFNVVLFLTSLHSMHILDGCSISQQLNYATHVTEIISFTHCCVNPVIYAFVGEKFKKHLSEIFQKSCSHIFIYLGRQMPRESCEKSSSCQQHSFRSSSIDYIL

cynomolgus CCR8 [13] = biological target: T3, cynomolgus CCR8; assay: FACS on HEK293-cynomolgus CCR8 cells; remark: listed apart in the source
human CCR8 [14] = biological target: T1, human CCR8; assay: FACS on HuT78 cells (endogenous human CCR8)
How it was run: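 HuT78 cells with endogenous human CCR8 were incubated with diluted antibodies for 1 h at 4 °C, washed, then stained 0.5 h at 4 °C with Alexa Fluor 647 anti-human IgG (1:600). Binding measured by flow cytometry.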

human CCR8 [15] = biological target: T1, human CCR8; assay: FACS on HuT78 cells (endogenous human CCR8); remark: listed apart in the source
human CCR8 [16] = biological target: T1, human CCR8; assay: FACS, competition with CCL1 on CHO-K1-human CCR8 cells
human CCR8 [17] = biological target: T1, human CCR8; assay: as above; remark: listed apart in the source
human CCR8 [18] = biological target: T2, human CCR8; assay: cell-based or functional assay; remark: listed apart in the source

Row | Binder | EC50, ADCC reporter, F variant CD16a/NFAT-Jurkat, target CHO-K1-human CCR8 cells (human CCR8 [2]) | EC50, ADCC reporter, F variant CD16a/NFAT-Jurkat, target HuT78 cells (human CCR8 [2]) | EC50, ADCC reporter, V variant CD16a/NFAT-Jurkat, target CHO-K1-human CCR8 cells (human CCR8 [2]) | EC50, ADCC reporter, V variant CD16a/NFAT-Jurkat, target HuT78 cells (human CCR8 [2]) | Max (RLU), ADCC reporter, F variant CD16a/NFAT-Jurkat, target CHO-K1-human CCR8 cells (human CCR8 [2]) | Max (RLU), ADCC reporter, F variant CD16a/NFAT-Jurkat, target HuT78 cells (human CCR8 [2]) | Max (RLU), ADCC reporter, V variant CD16a/NFAT-Jurkat, target CHO-K1-human CCR8 cells (human CCR8 [2]) | Max (RLU), ADCC reporter, V variant CD16a/NFAT-Jurkat, target HuT78 cells (human CCR8 [2]) | EC50, ADCC with human PBMCs, target CHO-K1-human CCR8 cells (human CCR8 [3]) | Max specific lysis (%), ADCC with human PBMCs, target CHO-K1-human CCR8 cells (human CCR8 [3]) | EC50, ADCC with human PBMCs (LDH release), target TALL-1 cells (human CCR8 [5]) | EC50 (human CCR8 [6]) | also measured
1 | Hu348-4 mIgG2a (antibody, V domains shown) VH: EVQLVESGGGLVQPGGSLKLSCATSGFSFSNYRMHWLRQASGKGLEWVGVITVKSDNYGANYAASVKGRFTISRDDSKSSVYLQMNSLKTEDTAVYYCSSLGRVAYWGQGTLVTVSS VL: DIQMTQSPSSVSASVGDRVTITCKASQNVDTNVVWYQQKPGQSPKALIYSASSRYSGVPSRFSGSGSGTDFTLTISSLQPEDFATYYCQQHNSFPLTFGQGTKLEIK |  |  |  |  |  |  |  |  |  |  |  |  | IC50, inhibition of CCL1 induced β-Arrestin recruitment (human CCR8 [1]): 860000 pM
2 | Hu149-11G1m (antibody, human IgG1, also called Hu149-11G1m (ADCC enhanced variant with L235V/F243L/R292P/Y300L/P396L Fc mutations)) heavy: EVQLVESGGGLVQPGGSLKLSCAASGFTFNTYAMNWVRQASGKGLEWVGRIRSKSNFYATAYAASVKGRFTISRDDSKNTAYLQMNSLKTEDTAVYYCTRGREYGSSYAMDYWGQGTLVTVSSASTKGPSVFPLAPSSKSTSGGTAALGCLVKDYFPEPVTVSWNSGALTSGVHTFPAVLQSSGLYSLSSVVTVPSSSLGTQTYICNVNHKPSNTKVDKKVEPKSCDKTHTCPPCPAPELVGGPSVFLLPPKPKDTLMISRTPEVTCVVVDVSHEDPEVKFNWYVDGVEVHNAKTKPPEEQYNSTLRVVSVLTVLHQDWLNGKEYKCKVSNKALPAPIEKTISKAKGQPREPQVYTLPPSRDELTKNQVSLTCLVKGFYPSDIAVEWESNGQPENNYKTTPLVLDSDGSFFLYSKLTVDKSRWQQGNVFSCSVMHEALHNHYTQKSLSLSPGK VL: DIVMTQSPLSLPVTPGEPASISCRSSKSLLHSNANTYLYWFLQKPGQSPQLLIYRMSNLASGVPDRFSGSGSGTDFTLKISRVEAEDVGVYYCMQHLEYPLTFGGGTKVELK | 5.6 pM | 16.4 pM | 7.25 pM | 20.3 pM | 8.28e+06 RLU | 1.59e+07 RLU | 3.93e+06 RLU | 8.7e+06 RLU | 0.085 pM | 46.6% | 0.682 pM | 328 pM | IC50, inhibition of CCL1 induced β-Arrestin recruitment, CHO-K1-human CCR8 β-Arrestin cells [4]: 2090 pM
3 | Hu149-4-mIgG2a (antibody, V domains shown) VH: EVQLVESGGGLVQPGGSLKLSCAASGFTFNTYAMNWVRQASGKGLEWVGRIRSKSNFYATYYAASVKGRFTISRDDSKNTAYLQMNSLKTEDTAVYYCTRGRDYGSSYAMDYWGQGTLVTVSS VL: DIVMTQSPLSLPVTPGEPASISCRSSKSLLHSNANTYLYWFLQKPGQSPQLLIYRMSNLASGVPDRFSGSGSGTDFTLKISRVEAEDVGVYYCMQHLEYPLTFGGGTKVELK |  |  |  |  |  |  |  |  |  |  |  |  | IC50, blocking of CCL1 induced cell migration (human CCR8 [7]): 2950 pM
4 | Hu149-11 (antibody, human IgG1, also called Hu149-11G1) heavy: not shown VL: DIVMTQSPLSLPVTPGEPASISCRSSKSLLHSNANTYLYWFLQKPGQSPQLLIYRMSNLASGVPDRFSGSGSGTDFTLKISRVEAEDVGVYYCMQHLEYPLTFGGGTKVELK |  |  |  |  |  |  |  |  |  |  |  |  | IC50, inhibition of CCL1 induced β-Arrestin recruitment (human CCR8 [8]): 800 pM; Max Inhibition (%), CCL1 induced β-Arrestin recruitment (human CCR8 [8]): 85.2%; IC50, blocking of cell migration induced by CCL1 (human CCR8 [9]): 849 pM; EC50 (human CCR8 [10]): 79.7 pM; Max MFI (human CCR8 [10]): 648000 MFI; EC50 (human CCR8 [11]): 158 pM; Max MFI (human CCR8 [11]): 210000 MFI; EC50 (cynomolgus CCR8 [12]): 137 pM; Max MFI (cynomolgus CCR8 [12]): 4.6e+06 MFI; EC50 (cynomolgus CCR8 [13]): 262 pM; Max MFI (cynomolgus CCR8 [13]): 4.48e+06 MFI; EC50 (human CCR8 [14]): 278 pM; Max MFI (human CCR8 [14]): 30200 MFI; EC50 (human CCR8 [15]): 735 pM; Max MFI (human CCR8 [15]): 57900 MFI; IC50 (human CCR8 [16]): 98.8 pM; Max Inhibition (%) (human CCR8 [16]): 100%; IC50 (human CCR8 [17]): 283 pM; Max Inhibition (%) (human CCR8 [17]): 99.5%
5 | Hu149-12G1m (antibody, human IgG1) heavy: EVQLVESGGGLVQPGGSLKLSCAASGFTFNTYAMNWVRQASGKGLEWVGRIRSKSNFYATAYAASVKGRFTISRDDSKNTAYLQMNSLKTEDTAVYYCTRGKEYGSSYAMDYWGQGTLVTVSSASTKGPSVFPLAPSSKSTSGGTAALGCLVKDYFPEPVTVSWNSGALTSGVHTFPAVLQSSGLYSLSSVVTVPSSSLGTQTYICNVNHKPSNTKVDKKVEPKSCDKTHTCPPCPAPELVGGPSVFLLPPKPKDTLMISRTPEVTCVVVDVSHEDPEVKFNWYVDGVEVHNAKTKPPEEQYNSTLRVVSVLTVLHQDWLNGKEYKCKVSNKALPAPIEKTISKAKGQPREPQVYTLPPSRDELTKNQVSLTCLVKGFYPSDIAVEWESNGQPENNYKTTPLVLDSDGSFFLYSKLTVDKSRWQQGNVFSCSVMHEALHNHYTQKSLSLSPGK VL: DIVMTQSPLSLPVTPGEPASISCRSSKSLLHSNANTYLYWFLQKPGQSPQLLIYRMSNLASGVPDRFSGSGSGTDFTLKISRVEAEDVGVYYCMQHLEYPLTFGGGTKVELK | 4.05 pM | 8.69 pM | 5.6 pM | 11.4 pM | 8.18e+06 RLU | 1.48e+07 RLU | 3.94e+06 RLU | 8.64e+06 RLU | 0.136 pM | 44.2% |  |  | IC50, inhibition of CCL1 induced β-Arrestin recruitment, CHO-K1-human CCR8 β-Arrestin cells [4]: 1160 pM
6 | Hu149-9 mIgG2a (antibody, V domains shown) VH: EVQLVESGGGLVQPGGSLKLSCAASGFTFNTYAMNWVRQASGKGLEWVGRIRSKSNFYATAYAASVKGRFTISRDDSKNTAYLQMNSLKTEDTAVYYCTRGRDYGSSYAMDYWGQGTLVTVSS VL: DIVMTQSPLSLPVTPGEPASISCRSSKSLLHSNANTYLYWFLQKPGQSPQLLIYRMSNLASGVPDRFSGSGSGTDFTLKISRVEAEDVGVYYCMQHLEYPLTFGGGTKVELK |  |  |  |  |  |  |  |  |  |  |  |  | IC50, inhibition of CCL1 induced β-Arrestin recruitment (human CCR8 [1]): 8640 pM; IC50, blocking of CCL1 induced cell migration (human CCR8 [7]): 1920 pM
7 | Hu149-11G1 (antibody, human IgG1, also called Hu149-11G1 (wild type variant)) heavy: not shown VL: DIVMTQSPLSLPVTPGEPASISCRSSKSLLHSNANTYLYWFLQKPGQSPQLLIYRMSNLASGVPDRFSGSGSGTDFTLKISRVEAEDVGVYYCMQHLEYPLTFGGGTKVELK | 58.6 pM | 402 pM | 39.1 pM | 586 pM | 4.71e+06 RLU | 4.07e+06 RLU | 2.03e+06 RLU | 3.89e+06 RLU | 13.9 pM | 52.5% | 12.1 pM | 315 pM | EC50, ADCC reporter, 158F CD16a/NFAT-Jurkat, target TALL-1 cells (human CCR8 [18]): 120 pM; EC50, ADCC reporter, 158V CD16a/NFAT-Jurkat, target TALL-1 cells (human CCR8 [18]): 65.8 pM
8 | TPP21360 (antibody, V domains shown) VH: EVQLLESGGGLVQPGGSLRLSCAASGFTFSSYGMHWVRQAPGKGLEWVSAINWNGGSTGYADSVKGRFTISRDNSKNTLYLQMNSLRAEDTAVYYCARGHHSGYDGRFFDYWGQGTLVTVSS VL: QSVLTQPPSVSGAPGQRVTISCTGSSSNIGAGYNVHWYQQLPGTAPKLLIYTNNRRPSGVPDRFSGSKSGTSASLAISGLRSEDEADYYCAAWDASLSGWVFGGGTKLTVLG |  |  |  |  |  |  |  |  |  |  | 553 pM | 461 pM | 
